Measurements as given in patent publication US20160333095A1 (published 2016).

T1: cynomolgus CD3 (UniProt Q95LI5 22-198)
T1 chain: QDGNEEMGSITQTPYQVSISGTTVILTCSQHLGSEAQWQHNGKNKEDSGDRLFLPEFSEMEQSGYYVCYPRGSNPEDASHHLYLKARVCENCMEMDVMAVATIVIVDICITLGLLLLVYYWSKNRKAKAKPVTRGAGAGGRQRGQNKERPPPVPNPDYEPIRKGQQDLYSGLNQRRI


How the values were obtained:
cynomolgus CD3 [1] = biological target: T1, cynomolgus CD3; assay: FACS binding, HSC-F cells
human CD3 [2] = biological target: T2, human CD3 (UniProt P07766 22-207); assay: FACS binding, Jurkat cells
cynomolgus CD3 [3] = biological target: T1, cynomolgus CD3; assay: FACS binding, HSC-F cells; Fig 2B
human CD3 [4] = biological target: T2, human CD3; assay: FACS binding, Jurkat cells; Fig 1B
cynomolgus CD3 [5] = biological target: T1, cynomolgus CD3; assay: FACS binding, HSC-F cells
human CD3 [6] = biological target: T2, human CD3; assay: FACS binding, Jurkat cells; remark: listed apart in the source
cynomolgus CD3 [7] = biological target: T1, cynomolgus CD3; assay: FACS binding, HSC-F cells; Fig 2A
human CD3 [8] = biological target: T2, human CD3; assay: FACS binding, Jurkat cells; Fig 1A
cynomolgus CD3 [9] = biological target: T1, cynomolgus CD3; assay: FACS binding, HSC-F cells; second row printed H4L1; graph legend indicates H4L3

T2 sequence (P07766 22-207): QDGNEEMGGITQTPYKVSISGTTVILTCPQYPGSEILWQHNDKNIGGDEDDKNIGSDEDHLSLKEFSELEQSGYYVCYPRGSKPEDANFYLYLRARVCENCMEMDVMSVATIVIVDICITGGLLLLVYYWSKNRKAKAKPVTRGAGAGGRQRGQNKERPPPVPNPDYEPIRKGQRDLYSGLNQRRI

Row | EC50 (cynomolgus CD3 [1]) [µg/mL] | EC50 (human CD3 [2]) [µg/mL] | EC50 (cynomolgus CD3 [3]) [µg/mL] | EC50 (human CD3 [4]) [µg/mL] | EC50 (cynomolgus CD3 [5]) [µg/mL] | EC50 (human CD3 [6]) [µg/mL] | EC50 (cynomolgus CD3 [7]) [µg/mL] | EC50 (human CD3 [8]) [µg/mL] | EC50 (cynomolgus CD3 [9]) [µg/mL] | Binder
1 | 0.28 | 0.64 | 3.54 | 0.28 |  |  |  |  |  | bsIgG1 huCD3-H3L1×HER2-LFLEDA (bispecific antibody, V domains shown) VH 1: EVKLVESGGGLVKPGRSLRLSCAASGFTFNTYAMNWVRQAPGKGLEWVARIRSKYNNYATYYADSVKDRFTISRDDSKSILYLQMNSLKTEDTAMYYCVRHGNFGNSYVSWFAYWGQGTLVTVSS VL 1: not shown VH 2: QVQLVQSGAEVKKPGASVKVSCKASGYTFTNYGISWVRQAPGQGLEWMGWLSAYSGNTIYAQKLQGRVTMTTDTSTTTAYMELRSLRSDDTAVYYCARDRIVVRPDYFDYWGQGTLVTVSS VL 2: EIVLTQSPATLSLSPGERATLSCRASQSVSSYLAWYQQKPGQAPRLLIYDASNRATGIPARFSGSGSGTDFTLTISSLEPEDFAVYYCQQRSNWPRTFGQGTKVEIK
2 | 0.06 | 0.18 | 0.47 | 0.07 | 0.06 | 0.27 | 0.3 | 0.08 |  | IgG1-CD3-LFLEDA (antibody, V domains shown) VH: EVKLLESGGGLVQPKGSLKLSCAASGFTFNTYAMNWVRQAPGKGLEWVARIRSKYNNYATYYADSVKDRFTISRDDSQSILYLQMNNLKTEDTAMYYCVRHGNFGNSYVSWFAYWGQGTLVTVSA VL: QAVVTQESALTTSPGETVTLTCRSSTGAVTTSNYANWVQEKPDHLFTGLIGGTNKRAPGVPARFSGSLIGDKAALTITGAQTEDEAIYFCALWYSNLWVFGGGTKLTVL
3 |  | 0.59 |  |  |  |  |  |  | 0.24 | bsIgG1-huCD3-H4L3×HER2-LFLEDA (bispecific antibody, V domains shown) VH 1: EVKLVESGGGLVKPGRSLRLSCAASGFTFNTYAMNWVRQAPGKGLEWVARIRSKYNNYATYYADSVKDRFTISRDDSKSILYLQMNSLKTEDTAMYYCVRHGNFGNSYVSWFAYWGQGTMVTVSS VL 1: QAVVTQEPSFSVSPGGTVTLTCRSSTGAVTTSNYANWVQQTPGQAFRGLIGGTNKRAPGVPARFSGSILGNKAALTITGAQADDESDYYCALWYSNLWVFGGGTKLTVL VH 2: QVQLVQSGAEVKKPGASVKVSCKASGYTFTNYGISWVRQAPGQGLEWMGWLSAYSGNTIYAQKLQGRVTMTTDTSTTTAYMELRSLRSDDTAVYYCARDRIVVRPDYFDYWGQGTLVTVSS VL 2: EIVLTQSPATLSLSPGERATLSCRASQSVSSYLAWYQQKPGQAPRLLIYDASNRATGIPARFSGSGSGTDFTLTISSLEPEDFAVYYCQQRSNWPRTFGQGTKVEIK
